Experimental data: patent US20260098102A1 (NATIONAL UNIVERSITY CORPORATION KOBE UNIVERSITY, published 2026)

T1: monkey SIRPA protein (cynomolgus monkey, UniProt P78324 31-504 (human entry))
T1 construct: Expressed on 293α cells from pcDNA3.2 V5-DEST or pFLAG V5-DEST vectors; also called cynomolgus monkey SIRPA; cSIRPA
T1 chain: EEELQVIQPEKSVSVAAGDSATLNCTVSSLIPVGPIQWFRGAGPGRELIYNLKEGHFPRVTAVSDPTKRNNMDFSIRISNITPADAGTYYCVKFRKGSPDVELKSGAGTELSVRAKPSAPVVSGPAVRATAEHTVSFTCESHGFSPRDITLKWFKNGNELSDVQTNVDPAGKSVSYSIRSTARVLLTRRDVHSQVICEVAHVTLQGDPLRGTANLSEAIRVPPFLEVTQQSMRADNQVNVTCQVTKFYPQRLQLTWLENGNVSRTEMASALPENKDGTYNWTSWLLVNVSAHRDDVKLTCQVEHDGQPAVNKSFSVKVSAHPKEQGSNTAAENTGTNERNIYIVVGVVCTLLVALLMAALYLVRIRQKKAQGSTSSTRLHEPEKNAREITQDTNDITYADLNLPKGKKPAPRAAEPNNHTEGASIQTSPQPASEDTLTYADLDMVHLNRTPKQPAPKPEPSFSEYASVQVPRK

T2: mouse SIRPA_C57BL/6 (mouse (C57BL/6), UniProt P97797 32-513)
T2 construct: FLAG-tagged (pFLAG V5-DEST), on 293α cells
T2 sequence: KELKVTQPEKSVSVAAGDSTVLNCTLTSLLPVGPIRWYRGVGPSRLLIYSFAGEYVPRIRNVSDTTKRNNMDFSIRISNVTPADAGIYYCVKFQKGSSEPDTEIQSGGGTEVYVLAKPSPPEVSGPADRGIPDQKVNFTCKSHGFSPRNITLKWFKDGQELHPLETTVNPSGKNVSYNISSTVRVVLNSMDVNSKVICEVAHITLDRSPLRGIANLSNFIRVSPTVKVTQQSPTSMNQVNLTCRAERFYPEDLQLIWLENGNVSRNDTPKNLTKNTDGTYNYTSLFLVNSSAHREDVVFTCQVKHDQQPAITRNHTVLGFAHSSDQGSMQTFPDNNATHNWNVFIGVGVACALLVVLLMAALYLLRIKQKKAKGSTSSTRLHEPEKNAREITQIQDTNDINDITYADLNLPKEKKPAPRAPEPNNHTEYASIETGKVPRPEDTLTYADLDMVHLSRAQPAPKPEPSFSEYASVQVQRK


What was measured:
monkey SIRPA protein = molecular target: T1, monkey SIRPA protein; experiment: cell-based ELISA on 293α cells expressing FLAG-tagged monkey SIRPA; Abs 490 normalized to FLAG tag
mouse SIRPA_C57BL/6 = molecular target: T2, mouse SIRPA_C57BL/6; experiment: cell-based ELISA on 293α cells expressing FLAG-tagged mouse SIRPA (C57BL/6); Abs 490 normalized to FLAG tag [i]
Procedure: The 293a cells, described in Example 1)-6, were prepared at 5× 10⁵ cells/mL in a 10% FBS-containing DMEM medium. pFLAG V5-DEST-SIRPA_V1-V10, pFLAG V5-DEST-monkey SIRPA, pFLAG V5-DEST-mouse SIRPA, or pFLAG V5-DEST was introduced into the cells using Lipofectamine LTX (Invitrogen), and 100 μL each was aliquoted to a 96-well plate (Corning Incorporated) and cultured overnight in a 10% FBS-containing DMEM medium at 37° C. under a 5% CO₂ condition. The obtained introduced cells were used for cell-based ELISA in a state that they adhered. After the culture supernatant was removed, 50 μL per well of hD13_HIL3, hD13_HIL4h, hD13_H2L2, hD13_H2L3, or cD13 prepared in Examples 6 and 7 or a control antibody was added to each of various SIRPA genes-introduced cells at a final concentration of 0 to 10,000 ng/ml, and the mixture was allowed to stand at 4° C. for one hour. Thereafter, binding to human SIRPA was evaluated in the same manner as in Example 5-1.

human SIRPA_V1 protein [1] = molecular target: T3, human SIRPA_V1 protein (human, UniProt P78324 31-504); experiment: blocking cell-based ELISA: peroxidase-labeled CD47-Fc (10,000 ng/mL) on 293α cells expressing SIRPA_V1; y axis = CD47-Fc signal in % of no antibody [i]
T3 construct: Expressed on 293α cells from pcDNA3.2 V5-DEST or pFLAG V5-DEST (FLAG-tagged) vectors; also called human SIRPA Variant 1; hSIRPA V1
Procedure: After the culture supernatant of the human SIRPA and monkey SIRPA expression vector-introduced 293α cells prepared in Examples 5)-1 and 5)-2, respectively, was removed, 50 μL per well of cD13 (IgG2 and IgG4pf), cF44 (four different constant regions IgG1, IgG2, IgG4p, and IgG4pf), and cF63 (IgG2 and IgG4pf) diluted with 5% FBS-containing PBS to final concentrations of 0 to 10,000 ng/mL were added to each of pcDNA3.2 V5-DEST-SIRPA_V1, pcDNA3.2 V5-DEST-monkey SIRPA, and pcDNA3.2 V5-DEST-introduced 293α cells, immediately followed by addition of 50 μL per well of peroxidase-labeled CD47-Fc prepared in 5% FBS-containing PBS at a final concentration of 10,000 ng/ml, and the mixture was allowed to stand at 4° C. for one hour. Thereafter, the SIRPA-CD47 binding inhibitory activity was evaluated in the same manner as in 1)-6-3.

human SIRPA_V1 protein [2] = molecular target: T3, human SIRPA_V1 protein; experiment: blocking cell-based ELISA: peroxidase-labeled CD47-Fc (1 µg/mL) on 293α cells expressing SIRPA_V1
Procedure: After the culture supernatant of the human SIRPA_V1 or V2 expression vector-introduced 293 cells prepared in Example 9)-1 was removed, 50 μL per well of various anti-SIRPA antibodies or various control Human IgG diluted with 5% FBS-containing PBS to a final concentration of 0 to 10,000 ng/ml was added to each of pcDNA3.2 V5-DEST-SIRPA_V1 or V2-introduced 293α cells, immediately followed by addition of 50 µL per well of peroxidase-labeled CD47-Fc prepared with 5% FBS-containing PBS at 1 μg/mL, and the mixture was allowed to stand at 4° C. for one hour. Thereafter, the SIRPA-CD47 binding inhibitory activity was evaluated in the same manner as in 1)-6-3.

T3 sequence (P78324 31-504 limits assumed): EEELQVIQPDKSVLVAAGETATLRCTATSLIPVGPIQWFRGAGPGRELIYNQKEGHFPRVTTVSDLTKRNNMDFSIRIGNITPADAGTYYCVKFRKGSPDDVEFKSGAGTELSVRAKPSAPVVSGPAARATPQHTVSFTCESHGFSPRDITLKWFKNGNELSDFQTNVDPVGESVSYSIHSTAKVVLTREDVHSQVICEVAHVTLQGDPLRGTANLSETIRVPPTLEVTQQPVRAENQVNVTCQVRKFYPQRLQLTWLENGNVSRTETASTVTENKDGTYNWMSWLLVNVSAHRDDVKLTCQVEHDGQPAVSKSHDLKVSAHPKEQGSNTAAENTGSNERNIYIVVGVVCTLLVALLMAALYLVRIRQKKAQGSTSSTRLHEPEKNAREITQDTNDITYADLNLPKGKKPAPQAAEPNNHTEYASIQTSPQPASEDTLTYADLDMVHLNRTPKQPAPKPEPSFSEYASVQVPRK

Row | Binder | EC50 (read off the curve) (monkey SIRPA protein) [µg/mL] | binding result (mouse SIRPA_C57BL/6) | IC50 (read off the curve) (human SIRPA_V1 protein [1]) [µg/mL] | IC50 (human SIRPA_V1 protein [2]) [µg/mL]
1 | human chimeric anti-SIRPA antibody cD13 (antibody, human IgG4 S228P, kappa, F234A L235A, V domains shown, Human IgG4proFALA heavy chain, human kappa light chain; also called cD13 (IgG4pf); human chimeric antibody D13) VH: EVQLVESGGGLVQPGRSLKLSCLASGFTFSDYGMIWVRQAPGKGLEWVASISSSSSYIYYADTVKGRFTISRENAKNTLFLHMTSLRSEDTALYYCARRYYGFNYPFDYWGQGVMVTVSS VL: DTVLTQSPALAVSLGQRVTISCGASKSVRTYMHWYQQKSGQQPKLLIYSASNLEAGVPSRFSGSGSGTDFTLTIDPVEADDIANYYCQQSNEPPYTFGAGTKLELKR | ~0.1 | no binding (tested: 10000 ng/mL) | ~0.1 | –
2 | humanized anti-SIRPA antibody hD13_H1L3 (antibody, human IgG4 S228P, kappa, F234A L235A, V domains shown, hH1 heavy chain (IgG4proFALA) and hL3 kappa light chain; also called hD13_HIL3; HIL3 antibody) VH: QVQLVESGGGVVQPGRSLRLSCAASGFTFSDYGMIWVRQAPGKGLEWVASISSSSSYIYYADSVKGRFTISRDNSKNRLYLQMNSLRAEDTAVYYCARRYYGFNYPFDYWGQGTMVTVSS VL: DTQLTQSPSSLSASVGQRVTITCGASKSVRTYMHWYQQKPGKQPKLLIYSASNLEAGVPSRFSGSGSGTDFTLTISSLQPEDFATYYCQQSNEPPYTFGQGTKLEIKR | – | no binding (tested: 10000 ng/mL) | – | 1.58
3 | humanized anti-SIRPA antibody hD13_H2L3 (antibody, human IgG4 S228P, kappa, F234A L235A, V domains shown, hH2 heavy chain (IgG4proFALA) and hL3 kappa light chain; also called H2L3 antibody) VH: EVQLVESGGGVVQPGRSLRLSCAASGFTFSDYGMIWVRQAPGKGLEWVASISSSSSYIYYADSVKGRFTISRDNSKNTLYLQMNSLRAEDTAVYYCARRYYGFNYPFDYWGQGTMVTVSS VL: DTQLTQSPSSLSASVGQRVTITCGASKSVRTYMHWYQQKPGKQPKLLIYSASNLEAGVPSRFSGSGSGTDFTLTISSLQPEDFATYYCQQSNEPPYTFGQGTKLEIKR | – | no binding (tested: 10000 ng/mL) | – | –

Now from value to binder:

Row | EC50 (read off the curve) (monkey SIRPA protein) [µg/mL] | binding result (mouse SIRPA_C57BL/6) | IC50 (read off the curve) (human SIRPA_V1 protein [1]) [µg/mL] | IC50 (human SIRPA_V1 protein [2]) [µg/mL] | Binder
4 | – | no binding (tested: 10000 ng/mL) | – | – | humanized anti-SIRPA antibody hD13_H2L2 (antibody, human IgG4 S228P, kappa, F234A L235A, V domains shown, hH2 heavy chain (IgG4proFALA) and hL2 kappa light chain; also called H2L2 antibody) VH: EVQLVESGGGVVQPGRSLRLSCAASGFTFSDYGMIWVRQAPGKGLEWVASISSSSSYIYYADSVKGRFTISRDNSKNTLYLQMNSLRAEDTAVYYCARRYYGFNYPFDYWGQGTMVTVSS VL: AIQLTQSPSSLSASVGQRVTITCGASKSVRTYMHWYQQKPGKAPKLLIYSASNLEAGVPSRFSGSGSGTDFTLTISSLQPEDFATYYCQQSNEPPYTFGQGTKLEIKR
5 | – | no binding (tested: 10000 ng/mL) | – | – | humanized anti-SIRPA antibody hD13_H1L4 (antibody, human IgG4 S228P, kappa, F234A L235A, V domains shown, hH1 heavy chain (IgG4proFALA) and hL4 kappa light chain; also called hD13_HIL4; hD13_HIL4h) VH: QVQLVESGGGVVQPGRSLRLSCAASGFTFSDYGMIWVRQAPGKGLEWVASISSSSSYIYYADSVKGRFTISRDNSKNRLYLQMNSLRAEDTAVYYCARRYYGFNYPFDYWGQGTMVTVSS VL: DTVLTQSPDSLAVSLGQRATINCGASKSVRTYMHWYQQKPGQQPKLLIYSASNLEAGVPSRFSGSGSGTDFTLTISSLQAEDVAVYYCQQSNEPPYTFGQGTKVEIKR
